A word on the EC50: it is the concentration that produces a half-maximal response.

Here are results for two molecules from patent publication US20130177570A1 (PURDUE RESEARCH FOUNDATION, published 2013).

Test [1] concerns the target T1, recombinant human folate receptor beta (FRβ), residues 22 to 236 (human, UniProt P14207 22-236).
T1 construct: Produced in SF9 insect cells with baculovirus, then purified by nickel column and gel filtration; also called recombinant FRβ; FRβ protein
In words: ELISA, recombinant FRβ coated, Fab detected with anti-FLAG-HRP. The procedure:
To characterize the m909 antibody, an ELISA was performed as follows. FRβ, diluted in PBS, was coated on half of the wells of a 96 well plate at 50 ng/well overnight at 4° C. Wells were blocked with 100 μl of 4% milk/PBS (MPBS) for 1 hr at 37° C. For Fab binding kinetics, Fab was titrated from 3000 nM to 0.038 nM (1:5 serial dilutions) then 50 μl of diluted Fab was added to duplicate wells. After 2 hr incubation at 37° C., the wells were washed four times with PBST (PBS+0.05% Tween 20). Bound Fab was detected by incubating with anti-FLAG-horseradish peroxidase (HRP) mAb (1:1000) (Sigma) for 1 hr at 37° C. Wells were washed again with PBST. The HRP substrate 2,2′-azino-bis(3-ethylbenzthiazoline-6-sulphonic acid) (ABTS) was added (50 μl/well), and the absorbance at 405 nm was determined. For ELISA with IgG, a goat anti-human Fc IgG conjugated with HRP was used at 1:1000. FIG. 3 is a graph depicting the binding of m909 IgG₁ to FRβ.
On the technique in general: In an ELISA, binding on a coated surface is turned into a signal by an enzyme label.

The target in test [2] is T1, recombinant human folate receptor beta …. In words: phage display panning and screening on coated FRβ protein. The procedure:
Purified FRβ was used for panning of a human naïve (not deliberately immunized) Fab phage library. Briefly, 2 μg of FRβ was coated on a Maxisorp plate, which was then incubated with library phage (˜10¹² pfu) for 2 hr. After extensively washing the wells with PBS+0.05% Tween 20 (PBST), phage were rescued by incubating with exponentially growing TG1 bacteria and helper phage. The panning procedure was repeated three more times with more stringent conditions in the latter two rounds, including decreased amounts of FRβ protein and additional washes with PBST. Three hundred colonies were picked from the last two rounds of panning and rescued with helper phage.

T1 sequence (P14207 other isoform, or with tags, fused parts or gaps): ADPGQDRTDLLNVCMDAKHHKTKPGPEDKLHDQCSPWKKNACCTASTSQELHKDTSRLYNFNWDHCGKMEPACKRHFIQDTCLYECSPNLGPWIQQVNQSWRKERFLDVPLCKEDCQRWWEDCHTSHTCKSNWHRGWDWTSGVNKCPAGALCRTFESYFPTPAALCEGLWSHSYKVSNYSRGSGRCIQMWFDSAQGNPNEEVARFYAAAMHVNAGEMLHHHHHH

B1: m909 Fab (Fab, V domains shown)
VH: EVQLVQSGAEVKKPGASVKVSCKASGYTFTSYAMHWVRQAPGQRLEWMGWINAGNGNTKYSQKFQGRVTITRDTSASTAYMELSSLRSEDTAVYYCARDISYGSFDYWGQGTLVTVSS
VL: SSELTQDPAVSVALGQTVRITCQGDSLRSNYANWYQQKPGQAPVLVIYGQNNRPSGIPDRFSGSSSGNTASLTITGAQAADEADYYCDSRVSTGNHVVFGGGTKLTVLG
notes: Soluble Fab expressed in E. coli HB2151; The phagemid adds His6 and FLAG tags at the C-terminus of the Fab
For B1, the EC50 in test [1] came to 20 nM.

B2: m923 (Fab, V domains shown)
VH: B1 VH
VL: SSELTQDPAVSVALGQTVRITCQGDNLRSYYASWYRQKSGQAPVLVIYGKNNRPSGIPDRFSGSSSGNTASLTITAAQAEDEADYYCHSRKSRGNHLLFGGGTKLTVLG
notes: Clone from the Fab phage library after light chain shuffling; also called clone m923
Take B2: in test [2], the binding result is “binds”.
